Data from the supplement of paper PMC11246515.
± gives the standard deviation of the averaged measurements.

Assay: total protein half-life in vivo (active degradation + dilution); higher = more stable protein
[1] = E. coli NCM3722 delta-clpP delta-lon delta-hslV, growth: N-lim chemostat, doubling time 6 h
[2] = E. coli NCM3722 delta-clpP, growth: N-lim chemostat, doubling time 6 h
[3] = E. coli NCM3722 delta-hslV, growth: N-lim chemostat, doubling time 6 h
[4] = E. coli NCM3722 delta-lon, growth: N-lim chemostat, doubling time 6 h
[5] = E. coli NCM3722 delta-smpB, growth: N-lim chemostat, doubling time 6 h
[6] = wild type E. coli NCM3722, growth: C-lim chemostat, doubling time 3 h
[7] = wild type E. coli NCM3722, growth: C-lim chemostat, doubling time 6 h
[8] = wild type E. coli NCM3722, growth: C-lim chemostat, doubling time 12 h
[9] = wild type E. coli NCM3722, growth: N-lim chemostat, doubling time 6 h
[10] = wild type E. coli NCM3722, growth: N-lim chemostat, doubling time 12 h
[11] = wild type E. coli NCM3722, growth: P-lim chemostat, doubling time 6 h
[12] = wild type E. coli NCM3722, growth: P-lim chemostat, doubling time 12 h

| Substance | total protein half-life in vivo [1] | total protein half-life in vivo [2] | total protein half-life in vivo [3] | total protein half-life in vivo [4] | total protein half-life in vivo [5] | total protein half-life in vivo [6] | total protein half-life in vivo [7] | total protein half-life in vivo [8] | total protein half-life in vivo [9] | total protein half-life in vivo [10] | total protein half-life in vivo [11] | total protein half-life in vivo [12] |
| --- | --- | --- | --- | --- | --- | --- | --- | --- | --- | --- | --- | --- |
| P30015 | 6.18 ± 0.094 h | 5.87 ± 0.33 h | 5.75 ± 0.43 h | 5.14 ± 0.24 h | 4.71 ± 0.31 h | 2.92 h | 6.31 ± 0.44 h | 11.4 ± 3.1 h | 5.5 ± 0.47 h | 9.93 ± 0.82 h | 5.97 ± 0.43 h | 11.8 ± 0.42 h |
| MLDANKLQQAVDQAYTQFHSLNGGQNADYIPFLANVPGQLAAVAIVTCDGNVYSAGDSDYRFALESISKVCTLALALEDVGPQAVQDKIGADPTGLPFNSVIALELHGGKPLSPLVNAGAIATTSLINAENVEQRWQRILHIQQQLAGEQVALSDEVNQSEQTTNFHNRAIAWLLYSAGYLYCDAMEACDVYTRQCSTLLNTIELATLGATLAAGGVNPLTHKRVLQADNVPYILAEMMMEGLYGRSGDWAYRVGLPGKSGVGGGILAVVPGVMGIAAFSPPLDEDGNSVRGQKMVASVAKQLGYNVFKG | 5.46 ± 0.86 h | 5.64 ± 1.6 h | 4.65 ± 0.16 h | 4.81 ± 0.26 h | 4.57 ± 0.085 h | – | > 8 h | 10.1 h | 4.75 ± 0.39 h | 7.14 ± 2.3 h | 6.4 ± 0.21 h | 12.4 ± 0.65 h |
| MNTIVFVEDDAEVGSLIAAYLAKHDMQVTVEPRGDQAEETILRENPDLVLLDIMLPGKDGMTICRDLRAKWSGPIVLLTSLDSDMNHILALEMGACDYILKTTPPAVLLARLRLHLRQNEQATLTKGLQETSLTPYKALHFGTLTIDPINRVVTLANTEISLSTADFELLWELATHAGQIMDRDALLKNLRGVSYDGLDRSVDVAISRLRKKLLDNAAEPYRIKTVRNKGYLFAPHAWE | 5.2 ± 1.1 h | 4.29 ± 0.89 h | 3.1 ± 0.46 h | 3.95 ± 0.079 h | 3.58 ± 0.22 h | 3.05 ± 0.78 h | 5.03 ± 0.43 h | 7.3 ± 0.64 h | 3.662 ± 0.028 h | 5.27 ± 0.083 h | 4.82 ± 0.53 h | 7.92 ± 0.17 h |
| MISDIRKDAEVRMDKCVEAFKTQISKIRTGRASPSLLDGIVVEYYGTPTPLRQLASVTVEDSRTLKINVFDRSMSPAVEKAIMASDLGLNPNSAGSDIRVPLPPLTEERRKDLTKIVRGEAEQARVAVRNVRRDANDKVKALLKDKEISEDDDRRSQDDVQKLTDAAIKKIEAALADKEAELMQF [P0A805] | 4.75 ± 0.095 h | 4.0455 ± 0.00085 h | 4.18 ± 0.071 h | 5.16 ± 0.078 h | 3.87 ± 0.05 h | 2.851 ± 0.0093 h | 4.84 ± 0.37 h | 8.3 ± 0.69 h | 3.38 ± 0.24 h | 5.74 ± 0.96 h | 5.04 ± 0.18 h | 9.21 ± 0.22 h |
| MRFAIVVTGPAYGTQQASSAFQFAQALIADGHELSSVFFYREGVYNANQLTSPASDEFDLVRAWQQLNAQHGVALNICVAAALRRGVVDETEAGRLGLASSNLQQGFTLSGLGALAEASLTCDRVVQF | 5.11 h | 4.58 h | – | – | 3.44 h | – | – | – | 4.52 h | – | 6.11 h | > 16 h |
| MPLSPYLSFAGNCSDAIAYYQRTLGAELLYKISFGEMPKSAQDSAENCPSGMQFPDTAIAHANVRIAGSDIMMSDAMPSGKASYSGFTLVLDSQQVEEGKRWFDNLAANGKIEMAWQETFWAHGFGKVTDKFGVPWMINVVKQQPTQ | 4.69 ± 0.16 h | 4.35 ± 0.15 h | 5.15 ± 1.1 h | 6.806 ± 0.035 h | 4.57 ± 0.27 h | 3.13 ± 0.35 h | 5.29 ± 0.48 h | 10.04 ± 0.096 h | 4.31 ± 0.37 h | 8.56 ± 1.2 h | 5.88 ± 0.59 h | 12.4 ± 0.98 h |
| MLTLLHLLSAVALLVWGTHIVRTGVMRVFGARLRTVLSRSVEKKPLAFCAGIGVTALVQSSNATTMLVTSFVAQDLVALAPALVIVLGADVGTALMARILTFDLSWLSPLLIFIGVIFFLGRKQSRAGQLGRVGIGLGLILLALELIVQAVTPITQANGVQVIFASLTGDILLDALIGAMFAIISYSSLAAVLLTATLTAAGIISFPVALCLVIGANLGSGLLAMLNNSAANAAARRVALGSLLFKLVGSLIILPFVHLLAETMGKLSLPKAELVIYFHVFYNLVRCLVMLPFVDPMARFCKTIIRDEPELDTQLRPKHLDVSALDTPTLALANAARETLRIGDAMEQMMEGLNKVMHGEPRQEKELRKLADDINVLYTAIKLYLARMPKEELAEEESRRWAEIIEMSLNLEQASDIVERMGSEIADKSLAARRAFSLDGLKELDALYEQLLSNLKLAMSVFFSGDVTSARRLRRSKHRFRILNRRYSHAHVDRLHQQNVQSIETSSLHLGLLGDMQRLNSLFCSVAYSVLEQPDEDEGRDEY [P0AF43] | 6.4 h | 6.35 ± 0.26 h | 5.73 ± 0.74 h | – | – | – | 5.38 ± 0.19 h | – | 6.48 h | 10.5 ± 4.5 h | 6.1173 ± 0.0061 h | 11.55 ± 0.033 h |
| MEGWQRAFVLHSRPWSETSLMLDVFTEESGRVRLVAKGARSKRSTLKGALQPFTPLLLRFGGRGEVKTLRSAEAVSLALPLSGITLYSGLYINELLSRVLEYETRFSELFFDYLHCIQSLAGVTGTPEPALRRFELALLGHLGYGVNFTHCAGSGEPVDDTMTYRYREEKGFIASVVIDNKTFTGRQLKALNAREFPDADTLRAAKRFTRMALKPYLGGKPLKSRELFRQFMPKRTVKTHYE [P0A7H3] | – | 2.812 ± 0.027 h | – | > 8 h | – | 1.98 h | – | 2.57 h | – | 2.87 h | – | 4.34 h |
